From the supplement of paper PMC9170038

Test system: MS2 coat protein
Assay: apparent KD of MS2 coat protein; designed switch direction (-1 OFF switch, 1 ON switch): -1; higher = weaker reporter binding
Outline: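 RNA switches sharing common flanks were transcribed by stalled E. coli RNA polymerase on Illumina chips. A doubling series of SNAP-549-labelled MS2 coat protein, from 0.7 or 1.5 nM to 3 µM, was applied in Tris-HCl pH 7.5 buffer with KCl, MgCl2, BSA, DTT, tRNA and Tween-20. Each step lasted 0.8–1.5 h at the bottom of the series and 10–20 min at the top. Normalised cluster fluorescence was curve-fitted, giving apparent KD as the per-design median over clusters.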

[1] = input ligand: microRNA oligo, concentration not stated
[2] = Eterna round: R95, input ligand: FMN 200 uM
[3] = Eterna round: R95, input ligand: microRNA oligo, concentration not stated
[4] = Eterna round: R95, input ligand: none

| Sequence | apparent KD of MS2 coat protein (input ligand: FMN 200 uM) [nM] | apparent KD of MS2 coat protein (input ligand: none) [nM] | apparent KD of MS2 coat protein [1] [nM] | apparent KD of MS2 coat protein [2] [nM] | apparent KD of MS2 coat protein [3] [nM] | apparent KD of MS2 coat protein [4] [nM] |
| --- | --- | --- | --- | --- | --- | --- |
| CCAGACGCUGUGAGGAUAUGAAAAGGUGCUGCUUUUUAGAAGGCACAUGAGGAUCACCCAUGUGGUACCUCGGG [Eternabot (L1) Solution 20] (Eterna round: R97, puzzle: Brourd's mod of Exclusion 4) | 397 | 514 |  |  |  |  |
| UCACGGGAUUGAGGAUAUAUAUUUAUUAUUUUAAUAGAAGGCAAAGAGUUAGUUUUUUCACUAUACAUGAGGAUCACCCAUGUU [JR_ExcNG1_Sub086] (Eterna round: R96, puzzle: Exclusion NG 1) |  |  | 23.2 |  |  |  |
| CUGGUCCGAGGAUAUAUUAAGUGAAACAUGAGGAUCACCCAUGUAAUUUGAUGGAUGUAAAUAGAAGGCGGACUAG [JL-ex5-3.09] (puzzle: Exclusion 5) |  |  |  | 29.4 | 37.1 | 43.8 |
| CUGUACUGAGGAUAUACAUGAGGAUCACCCAUGUGUUCCUGCUAGGAAACUAGCAAGGGUAGAAGGCAGUACAG [Mat - Exclusion 3 - Eli Mod - D46] (Eterna round: R97, puzzle: Exclusion 3) | 100 | 15.7 |  |  |  |  |
| UAUGCCUUUGUGAGGAUAUACUUUGUUUGGUCGUAGUAGAAGGCACAUGAGGAUCACCCAUGUAGAUUUUUGGU [JR_BME4_Sub012] (puzzle: Brourd's mod of Exclusion 4) |  |  |  |  | 25.4 |  |
| ACAUGAGGAUCACCCAUGUGAAAGAAAUGGCUGACUUUGAGCUAGGAUAUUUGUGCAUAUCAAACGAAGAAGGAGCAUUACUGG [Deportation 100 - Jieux - Exclusion NG 3] (Eterna round: R96, puzzle: Exclusion NG 3) |  |  | 16.4 |  |  |  |
| GGUUCGAAUGUGAGGAUAUGCUGGUCCUUGGAUCAGCAGAAGGCACAUGAGGAUCACCCAUGUGGUAACGGACC [Mat - Exclusion 4 - Eli Mod - D36] (Eterna round: R97, puzzle: Brourd's mod of Exclusion 4) | 178 | 357 |  |  |  |  |
| AGUACUAGCACGAAAGUGUUAGUACAAUAAGCUUGUGAAACAUGAGGAUCACCCAUGUCCUCAUAAGCUCGUCUUAU [salish99_TOv2_r3_020] (puzzle: Sensor v3, turn-off variant 2) |  |  |  | 18.2 | 429 | 16 |
| UCACGGGAUUGAGGAUAUAUAUUAAUUUUUUUUAUAGAAGGCAAAUUGUUAGAUUAUUCACUAUACAUGAGGAUCACCCAUGUU [JR_ExcBG1_Sub077] (Eterna round: R96, puzzle: Exclusion NG 1) |  |  | 19.9 |  |  |  |
| GGUGAGCUACUAGGAUAUCUAGGCUAUUUACCUAGAGAAGGAGUCGCCUUCCCUCGCGUAGAUACAUGAGGAUCACCCAUGUAU [Eternabot solution 50] (Eterna round: R96, puzzle: Exclusion NG 1) | 16.9 | 18.1 | 14.1 |  |  |  |
| CUGAUGUUAGGAUAUCAGGCGCCCGCCACUGGCAGGGCGCAUGAGAAGGGACAUGAGGAUCACCCAUGUAGUAA [Anorbeus] (puzzle: Exclusion 4) |  |  |  |  | 26.3 |  |
| UAAUAGUAUGUUAGGAUAUGCUGGUCGAAAGAUCAGCAGAAGGAACAUGAGGAUCACCCAUGUAGACUAUUUUA [Mod of JL 20 - Jieux - Brourd's mod of Exclusion 4] (Eterna round: R97, puzzle: Brourd's mod of Exclusion 4) | 31.6 | 17.8 |  |  |  |  |
| AGUAGAUCUACGCUUGCGUGGAUCUGCUAGGCAGGUGUAACAUGAGGAUCACCCAUGUCCUCAUUUGUUCGUCUUAU [JL turnoff v2 99.18] (puzzle: Sensor v3, turn-off variant 2) |  |  |  | 85.4 | 313 | 28.3 |
| AAUAAAGUAGGAUAUACAUGAGGAUCACCCAUGUCCCACCCGUUACCUAUGACCAUAUGUAGAAGGACUAAUAA [Exy#3] (Eterna round: R97, puzzle: Exclusion 3) | 80 | 59.1 |  |  |  |  |
| GGCCUUCCGCAAGCUUUUUACAUGAGGAUCACCCAUGUGAUUUUUAGUCUUAUGCCCGGGCCCGUGUGGGCCCGGGC [-34.8, -55.6, A 14%] (Eterna round: R97, puzzle: Sensor, turn-off variant 1) | 23.4 | 23.1 |  |  |  |  |
| UCGAAAUCUAACAAGCCAUACAUGAGGAUCACCCAUGUGUUCGUCAUAGCGAUCCGACAUGAUGCUCGUCGAAAUAC [Eternabot (L2) Solution 48] (Eterna round: R97, puzzle: Sensor, turn-off variant 1) | 448 | 745 |  |  |  |  |
| GAAAAGUCAGGAUAUGCAGAUAAAAAAACGAAAAAAAAUCUGCAGAAGGGACAUGAGGAUCACCCAUGUAAAAG [Mat - Exclusion 4 - Mayanna - D110] (Eterna round: R96, puzzle: Exclusion 4) |  |  | 29.1 |  |  |  |

| Sequence | apparent KD of MS2 coat protein (input ligand: FMN 200 uM) [nM] | apparent KD of MS2 coat protein (input ligand: none) [nM] | apparent KD of MS2 coat protein [1] [nM] | apparent KD of MS2 coat protein [2] [nM] | apparent KD of MS2 coat protein [3] [nM] | apparent KD of MS2 coat protein [4] [nM] |
| --- | --- | --- | --- | --- | --- | --- |
| AACCUGAGGCAAAGCUUUAGGUGUACAUGAGGAUCACCCAUGUAGGAUAUGGUAGGCAAAGCUUACCAGAAGGACAUUAUGAUA [Mat - Exclusion NG 3 - Mod of JL - D52] (Eterna round: R96, puzzle: Exclusion NG 3) | 66.9 | 53.1 | 44 |  |  |  |
| GAGAACUGAGGAUAUACAUGAGGAUCACCCAUGUUAAGAAGAAAGUAUAAAAGAUUAUGUAGAAGGCAGAGAGA [JR_Ex3_Sub068] (Eterna round: R97, puzzle: Exclusion 3) | 29.8 | 33.3 |  |  |  |  |
| GUCAGCUCGUGAGGAUAUACAUGCGUGCUUCGGCACGUAUGAUAGAUCACAUGAGGAUCACCCAUGUAGAAGGCACGAGCUGAU [ENG2/4-A2] (Eterna round: R96, puzzle: Exclusion NG 2) | 21.7 | 11.8 | 10.4 |  |  |  |
| GAGAAACAUGAGGAUCACCCAUGUGAGGAUAUGAAAAAGAAAAGAAAAGAAAGAAGAAUCAGAAGGCACAAAGC [salish99-ex1_r3_091] (puzzle: Exclusion 1) |  |  |  | 23.1 | 32.4 | 30 |
| UAGAUGUGAGGAUAUACAUGAAUGCAGGAUCGUGUGGUGCUACAUGAGGAUCACCCAUGUAGAAGGCACGUCUU [Mod 9 R3 JL-ex2-2.29 - Jieux - Exclusion 2] (Eterna round: R97, puzzle: Exclusion 2) | 20 | 13.9 |  |  |  |  |
| UACACUCAGCAGGAUAUGCAACAAAAUUAAAACGCAGAAGGGUUGACAUGAGGAUCACCCAUGUAACUCAUGCA [EX6 A.1] (Eterna round: R97, puzzle: Exclusion 6) | 14.2 | 15.7 |  |  |  |  |
| GAAGGGCGUCUAGGAUAUAGUAUACGGCGAACAUGAGGAUCACCCAUGUGUCCGAAUGCGGCGAGCUAGAAGGAGAAUUCGCCC [Enuseszave] (Eterna round: R96, puzzle: Exclusion NG 2) | 72.4 | 49.1 | 33.4 |  |  |  |
| CUGAUGGACUAGGAUAUCCUCAUCGAUCAGGGAGGAGAAGGAGUCACAUGAGGAUCACCCAUGUGAUGGUAAAA [Atqubi] (puzzle: Exclusion 6) |  |  |  | 14.9 | 11.9 | 13.6 |
| AUUUAACAUGAGGAUCACCCAUGUGAGGAUAUGUCCAUAUUCGGCAAAUCGGAUAUGGACAGAAGGCACACCGG [JR_Exclusion1_Sub008] (puzzle: Exclusion 1) |  |  |  |  | 139 |  |
| GCUGGUCGAGGAUAUACAUGAGGAUCACCCAUGUGGUCACGUGACGAUAGUCACGAAUGUAGAAGGCGACCAGC [E3/3-A1] (Eterna round: R97, puzzle: Exclusion 3) | 66.9 | 161 |  |  |  |  |
| UAAUGCAAGUAAAGAUCUUACAUGAGGAUCACCCAUGUGCUCGUCUUAUAAAGUACUAUCACGAAAGUGAUAGUACA [Mat - Sensor v3 - turn-off var 1 - Eli Mod - D89] (puzzle: Sensor v3, turn-off variant 1) |  |  |  | 18.2 | 119 | 18 |
| CGGCAUGUCUGAGGAUAUCUGCACGUGUAGUGCAGAGAAGGCAGAACAUGAGGAUCACCCAUGUAGAUCAUUAACCGAUUAAUU [ENG1/7-A3] (Eterna round: R96, puzzle: Exclusion NG 1) | 201 | 184 | 162 |  |  |  |
| ACUCAGUGAGGAUAUCGCCAGAGAGCCGCAACAGCUCCUGAUGAGAAGGCACAUGAGGAUCACCCAUGUAAGCA [EX4 C.19] (Eterna round: R97, puzzle: Exclusion 4) | 321 | 116 |  |  |  |  |
| UCUUAACAUGAGGAUCACCCAUGUGAGGAUAUGAUGCAGCAGUGGUCUACGCUGUGCAUCAGAAGGUACAUGGG (puzzle: Exclusion 1) |  |  |  |  | 26.8 |  |
| CCGCUCCGUGUAGGAUAUCGGCGUGCCCUGCGCCGAGAAGGACAUGAGGAUCACCCAUGUAUGUUAUUAUCACGCGUGGCGCAC [Design 75] (Eterna round: R96, puzzle: Exclusion NG 1) | 18.7 | 19.9 | 15 |  |  |  |
| GUCAUCAAACAUGGGUUAAACAUGAGGAUCACCCAUGUAUACAAGUUUUUUGCUCGUCUUAUAAUAAGUUUGAUGAC [Antenna 7 - Jieux - Sensor, turn-off variant 1] (Eterna round: R97, puzzle: Sensor, turn-off variant 1) | 59.9 | 66.8 |  |  |  |  |
| AUAGGCCGAGGAUAUGUAGCUAUGAACAUGAGGAUCACCCAUGUGAGUGUCGUGCGUAUUAUAGAAGGCGGUGCAU [EX5 B.14] (Eterna round: R97, puzzle: Exclusion 5) | 17 | 16.1 |  |  |  |  |
